Values of other authors in publication PMC12608641.

Molecular target: p55 (Homo sapiens) (UniProt Q9UHN1)
Experiment: ultracentrifugation

Kd: < 100 pM
Substance: p55 (from UniProt Q9UHN1)
